Assay results reported in PMC9876794 (2022).
Numbering of substitutions follows the chain as printed.

B1: C2743 (antibody, V domains shown)
VH: QVQLVQSGAEVKKPGASVKVSCKASGYTFTSYGISWVRQAPGQGLEWMGWISAYNGNTNYAQKLQGRVTMTTDTSTSTAYMELRSLRSDDTAVYYCARDFGELATPLDYWGQGTLVTVSS
VL: EIVLTQSPATLSLSPGERATLSCRASQSVSSYLAWYQQKPGQAPRLLIYDASNRATGIPARFSGSGSGTDFTLTISSLEPEDFAVYYCQQRSNSLTFGGGTKVEIK
B2: D051 (antibody, V domains shown)
VH: QVQLQQWGAGLLKPSETLSLTCAVYGGSFSDYYWTWIRQAPGKGLEWIGEINHSGSTNYNPSLKSRVTISVDTSKSQFSLSLTSVTAADTAVYYCARGRRYCNSLSCPYYFYFYMDVWDKGTTVTVSS
VL: DIQMTQSPSSVSASVGDRVTITCRASQGISSWLAWYQQKPGKAPKLLIYAASSLQSGVPSRFSGSGSGTDFTLTISSLQSEDFATYYCQQANSFPRTFGQGTRLEIK
B3: D164 (antibody, V domains shown)
VH: QVQLVQSGAEVKKPGASVKVSCKASGYTFTSYYMHWVRQAPGQGLEWMGIINPSGGSTSYAQKFQGRVTMTRDTSTSTVYMELSSLRSEDTAVYYCARGGIVPAATENFDYWGQGTLVTVSS
VL: EIVLTQSPATLSLSPGERATLSCRASQSVSSYLAWYQQKPGQAPRLLIYDASNRATGIPARFSGSGSGTDFTLTISSLEPEDFAVYYCQQRSNWPITFGQGTRLEIK
B4: C2721 (antibody, V domains shown)
VH: EVQLVESGGGLIQPGGSLRLSCAASGFTVSSNYMSWVRQAPGKGLEWVSVIYSGGSTYYADSVKGRFTISRDNSKNTLYLQMNSLRAEDTAVYYCARDMGGDAFDIWGQGTMVTVSS
VL: DIQLTQSPSFLSASVGDRVTITCRASQGISSYLAWYQQKPGKAPKLLIYAASTLQSGVPSRFSGSGSGTEFTLTISSLQPEDFATYYCQQLNSYPFFGGGTKVEIK
B5: D049 (antibody, V domains shown)
VH: EVQLVQSGAEVKKPGESLKISCKGSGYSFISHWIGWVRQMPGKGLEWMGIIYPGDSDTRNSPSFQGQVTISADKSISTAYLQWSSLKASDTAMYYCARLLGSNYEVGFDYWGQGTLVTVSS
VL: not shown
B6: C2736 (antibody, V domains shown)
VH: QVQLVQSGAEVKKPGSSVKVSCKASGGTFSSYAISWVRQAPGQGLEWMGGIIPIFGTANYAQKFQGRVTITADESTSTAYMELSSLRSEDTAVYYCASCRYYYDSSGYAQPEDYFDYWGQGTLVTVSS
VL: QSVLTQPPSVSGAPGQRVTISCTGSSSNIGAGYDVHWYQQLPGTAPKLLIYGNSNRPSGVPDRFSGSKSGTSASLAITGLQAEDEADYYCQSYDSSLSGSHVVFGGGTKLTVL
B7: C2748 (antibody, V domains shown)
VH: QVQLVQSGAEVKKPGSSVKVSCKASGGTFTNYAISWVRQAPGQGLEWMGGIIPIFGTEDYAQRFQGRVTITADESTSTAYMELTSLTSEDTAVYFCARGLPLTVTTRRRFNFFDYWGQGTLVTVSS
VL: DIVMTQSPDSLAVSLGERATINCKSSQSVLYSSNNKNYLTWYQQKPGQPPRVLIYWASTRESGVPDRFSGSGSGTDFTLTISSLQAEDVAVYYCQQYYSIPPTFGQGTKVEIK
B8: D159 (antibody, V domains shown)
VH: QVQLVESGGGVVQPGGSLRLSCAASGFTFSTYGMHWVRQAPGKGLEWVAFIQYDGSNKYYADSVKGRFTISRDNSKNTLCLQMNTLRAEDTAVYYCAKDLYYYGSGSYFDYWGQGTLVTVSS
VL: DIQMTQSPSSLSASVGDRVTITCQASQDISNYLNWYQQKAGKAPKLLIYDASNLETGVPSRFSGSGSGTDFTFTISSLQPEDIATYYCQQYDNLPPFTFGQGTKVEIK
B9: C2699 (antibody, V domains shown)
VH: QLQLQESGPGLVKPSETLSLTCTVSRGSISSSSYYWGWIRQPPGKGLEWIGSIYYSGNTYYNPSLKSRVTISVDTSNNQFFLKLSSVTAADTAVYYCARRPNSGWGYWYFDLWGRGTLVTVSS
VL: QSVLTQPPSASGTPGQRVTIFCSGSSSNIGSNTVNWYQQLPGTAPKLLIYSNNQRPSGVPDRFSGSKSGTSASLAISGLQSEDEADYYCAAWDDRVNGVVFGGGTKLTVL
B10: C2727 (antibody, V domains shown)
VH: EVQLVESGGGLIQPGGSLRLSCAASGFTVSSNYMSWVRQAPGKGLEWVSVIYSGGSTYYADSVKGRFTISRDNSKNTLYLQMNSLRAEDTAVYYCAREGPQKTDWGQGTLVTVSS
VL: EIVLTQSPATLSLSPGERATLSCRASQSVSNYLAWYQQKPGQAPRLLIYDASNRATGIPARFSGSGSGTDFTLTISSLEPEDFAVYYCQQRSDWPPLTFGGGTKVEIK
B11: D147 (antibody, V domains shown)
VH: QVQLVESGGGVVQPGRSLRLSCAASGFTFSSYGMYWVRQAPGKGLEWVAVISYDGSNKYYADSVKGRFTISRDNSKNTLYLQMNSLRAEDTAVYYCAKGGGEYCSGGNCYSSYFDYWGQGTLVTVSS
VL: not shown
B12: C2724 (antibody, V domains shown)
VH: not shown
VL: B3 VL with W94C, I96L, Q100G, R103K, L104V
B13: D046 (antibody, V domains shown)
VH: EVQLVESGGGLVQPGGSLRLSCAASGFTFSSYWMHWVRQAPGKGLVWVSRINSDGSSTSYADSVKGRFTISRDNAKNTLYLQMNSLRAEDTAVYYCARGVPHDYGDYESVILAGYYYYYYGMDVWGQGTTVTVSS
VL: not shown
B14: C2719 (antibody, V domains shown)
VH: B4 VH with M99L, G101P, D102Y, A103G, F104M, I106V, M112T
VL: DIQLTQSPSFLSASVGDRVTITCRASQGISSYLAWYQQKPGKAPKLLIYAASTLQSGVPSRFSGSGSGTEFTLTISSLQPEDFATYYCQQLNSYPPEIGQGTRLEIK
B15: D064 (antibody, V domains shown)
VH: EVQLVQSGAEVKKPGESLKISCKGSGYSFTSYWIGWVRQMPGKGLEWMGIIYPGDSDTRYSPSFQGQVTISADKSISTAYLQWSSLKASDTAMYYCASHAGGYDFDYYYMDVWGKGTTVTVSS
VL: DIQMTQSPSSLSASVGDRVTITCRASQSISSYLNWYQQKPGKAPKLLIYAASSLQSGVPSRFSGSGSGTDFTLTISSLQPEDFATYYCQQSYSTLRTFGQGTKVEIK
B16: A47 (antibody, V domains shown)
VH: HVQLQQPGAELVKPGASVKVSCKASGYTFTSFWMHWVKQRPGQGLEWIGGIHPSDSDTNYNQKFKGKATLTVNKSSSTAYMQLSSLTSEDSAVYYCAIGDECANWGQGTLVTVSA
VL: DIVLTQSPASLAVSLGQRATISCRASKSVSTSGYSYMHWYQQKPGQPPKLLIYLASNLESGVPARFSGSGSGTDFTLNIHPVEEEDAATYYCHHSRELPFTFGSGTKLEIK
B17: A09 (antibody, V domains shown)
VH: QVQLQQPGAELVKPGASVKVSCKASGYTFTSYWMHWVKQRPGQGLEWIGRIHPSDSDTNYNQKFKGKATLTVDKSSSTAYMQLSSLTSEDSAVYSCARGMDYWGQGTSVTVSS
VL: DVVLTQTPLSLPVNIGDQASISCKSTKSLLNSVGFTYLDWYLQKPGQSPQLLIYLVSNRFSGVPDRFSGSGSGTDFTLKISRVEAEDLGVYYCFQSNYLPYTFGGGTKLEIK
B18: B27 (antibody, V domains shown)
VH: EVKLEESGGGLVQPGGSMKLSCAASGFTFSDAWMDWVRQSPEKGLEWVAEIRNKANNHATYYAESVKGRFTISRDDSKSSVYLQMNSLRAEDTGIYYCTNYKYYAMDYWGQGTSVTVSS
VL: QIVLTQSPAIMSASPGEKVTMTCSASSSVSYMYWYQQKPGSSPRLLIYDTSNLASGVPVRFSGSGSGTSYSLTISRMEAEDAATYYCQQWSSYPLTFGAGTKLELK
B19: A24 (antibody, V domains shown)
VH: DVQLQESGPGLVKPSQSLSLTCSVTGYSITSGYYWNWIRQFPGNKMEWMGYITYDGRNTYNPSPKNRLSITRDTSKNQFFLKLNSVTTEDTATYYCARCHYYGSSYAMDYWGQGTSVTVSS
VL: DIVMTQSHKFMSTSVGDRVSITCKASQDVSTAVAWYRQKPGQSPKLLIYWASTRHTGVPDRFTGSGSGTDYTLTISSVQPEDLALYYCQQHYTTPLTFGAGTKLELK
B20: B05 (antibody, V domains shown)
VH: QVQLKQSGAELVRPGASVKLSCKASGYTFTDYYINWVKQRPGQGLEWIARIYPGSGNPYYNEKFKGKATLTAEKSSSTAYMQLSSLTSEDSAVYFCARRGTLLYAFAYWGQGTLVTVSA
VL: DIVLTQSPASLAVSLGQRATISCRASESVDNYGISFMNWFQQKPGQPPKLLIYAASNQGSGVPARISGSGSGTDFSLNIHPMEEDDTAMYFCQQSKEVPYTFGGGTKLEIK
B21: B33 (antibody, V domains shown)
VH: EVQLQQSGPELVKPGTSVKISCKASGYSFTGYYMNWVKQSPEKSLEWIGEINPSTGGTTYNQKFKAKATLTVDKSSSTAYMQLKSLTSEDSAVYYCARADYWGQGTTLTVSS
VL: DIVLTQSPASLAVSLGQRATISCRASESVEYYVTSLMQWYQQKPGQPPKLLIYAASNVESGVPARFSGSGSGTDFSLNIHPVEEDDIAMYFCQQSREVPYTFGGGTKLEIK
B22: B32 (antibody, V domains shown)
VH: QVQLQQSGPELVKPGASVKISCKASGYAFSSSWMNWVKQRPGKGLEWIGRIYPGDGDTNYNGKFKGKATLTADKSSSTAYMQLSSLTSEDSAVYFCARELDPPWGQGTTLTVSS
VL: DILMTQSPSSMSVSLGDTVSITCHASQGISSNIGWLQQKPGKSFKGLIYHGTNLEDGVPSRFCGSGSGADYSLTISSLESEDFADYYCVQYAQFPFTFGSGTKLEIK
B23: B22 (antibody, V domains shown)
VH: EVKLEESGGGLVQPGGSMKLSCAASGFTFSDAWMDWVRQSPEKGLEWVAEIRNKANNHAIYYAESVKGRFTISRDDSKSSVYLQMNSLRAEDTGIYYCILFLTGHFDYWGQGTTLTVSS
VL: DIVMTQSQKFMSTSVGDRVSITCKASQNVRTAVVWYQEKPGQSPKTLIYLASNRHTGVPDRFTGSGSGTDFTLTISNVQSEDLADYFCLQHWNYPLTFGSGTKLEIK
B24: B03 (antibody, V domains shown)
VH: EVQLQQSGPELVKPGASVKISCKASGYSFTGYYMNWVKQSPEKSLEWIGEINPSTGGATYNQKFKAKATLTVDKSSSTASMQLKSLTSEDSAVYYCARAAGDYWGQGTTLTVSS
VL: B21 VL with V33G, E97K, Y100W

These binders were tested against T1, SARS-CoV-2 spike RBD (WT) (Severe acute respiratory syndrome …, UniProt P0DTC2) (assay: BLI).

First: B1
Second: B2
The Kd of the first is 120-fold lower: 18.5 nM for the first, 2240 nM for the second.

Going from B3 to B4, the Kd falls from 194 nM to 98.5 nM (2-fold).

Compared with B5, B6 is 1.6-fold lower in Kd: 9.69 nM for the first, 6.14 nM for the second.

Compared with B7, B8 is 7-fold higher in Kd: 2.4 nM for the first, 16.9 nM for the second. The first binds more tightly here.

B9 and B10 are within 1.5-fold of each other in Kd: 74 nM for the first, 99.6 nM for the second.

Going from B11 to B12, the Kd rises from 94.2 nM to 174 nM (1.8-fold).

First: B13
Second: B14
The Kd of the first is 3-fold lower: 42.4 nM for the first, 127 nM for the second.

For B15, the Kd was 344 nM.

Biological target: T1, SARS-CoV-2 spike RBD (WT)
Experiment: BLI
Remark: another data set of the same source

Compared with B16, B17 is 4.7-fold lower in Kd: 142 nM for the first, 30.2 nM for the second. The second binds more tightly here.

Going from B18 to B19, the Kd rises from 120 nM to 205 nM (1.7-fold).

B20 and B21 are within 1.5-fold of each other in Kd: 68.5 nM for the first, 72.7 nM for the second.

Compared with B22, B23 is 2.8-fold higher in Kd: 95.8 nM for the first, 269 nM for the second.

With B24 the Kd was 52.6 nM.

What follows are binders tested against T1, SARS-CoV-2 spike RBD (WT) (assay: ELISA).
Parameters: unit not given here

Going from B1 to B2, the binding score rises from 14.3 to greater than 10000.

Going from B3 to B4, the binding score rises from 63.2 to 174.

First: B5
Second: B6
The binding score of the first is lower: 6.28 for the first, 79.9 for the second.

First: B7
Second: B8
The binding score of the first is lower: 11.7 for the first, 59.9 for the second.

Going from B9 to B10, the binding score falls from 334 to 20.

Going from B11 to B12, the binding score rises from 7.89 to 604.

Compared with B13, B14 is higher in binding score: 6.02 for the first, 59.3 for the second.

B15 showed a binding score of 1230.
